Assay results as given in patent publication US20230131339A1, “EPI-X4 BASED PEPTIDES AND DERIVATIVES THEREOF” (Universitaet Ulm, priority 2020, published 2023).
Where no end group is shown, it is not given here. Side-chain parts run from the residue outwards. [ ]: non-standard residue; d: D form. The star is where a group is joined. Stearoyl = CCCCCCCCCCCCCCCCCC(=O)*; Palmitoyl = CCCCCCCCCCCCCCCC(=O)*; Myristoyl = CCCCCCCCCCCCCC(=O)*; Glu = glutamate linker

B1: JM#143 (peptide)
peptide: ILRWSRKLPCVS
modifications: not fully specified (residue 7)
B2: JM#38 (peptide)
peptide: XMRWSRKMPCVS
modifications: d-G at position 1 (so in the source)
B3: JM#145 (peptide)
peptide: ILRWSRKLPCK([Glu-Palmitoyl])S
B4: JM#122 (peptide)
peptide: ILRWSRKLPSVS
B5: JM#146 (peptide)
peptide: IYRWSRKMPCLS
B6: JM#32 (peptide)
peptide: Ac-SMRWSRKMPCVS
B7: JM#151 (peptide)
peptide: IVRWSKKVPSVS
B8: JM#3 (peptide)
peptide: IVRWSRKVPCVS
B9: JM#256 (peptide)
peptide: [dL]LRWSRK(Stearoyl)-NH2
modifications: N-terminus assumed
SMILES: CCCCCCCCCCCCCCCCCC(=O)NCCCC[C@H](NC(=O)[C@H](CCCNC(=N)N)NC(=O)[C@H](CO)NC(=O)[C@H](Cc1c[nH]c2ccccc12)NC(=O)[C@H](CCCNC(=N)N)NC(=O)[C@H](CC(C)C)NC(=O)[C@H](N)CC(C)C)C(N)=O
B10: JM#8 (peptide)
peptide: ILRWSRKVPCVS
B11: JM#34 (peptide)
peptide: MMRWSRKMPCVS
B12: JM#15 (peptide)
peptide: ILRWSRKVPC[dV]S
B13: JM#7 (peptide)
peptide: IVRWSKKFPCVS
B14: JM#6 (peptide)
peptide: IVRWSKKIPCVS
B15: JM#4 (peptide)
peptide: IVRWSHKVPCVS
B16: JM#16 (peptide)
peptide: IIRWSRKMPCVS
B17: JM#37 (peptide)
peptide: [dF]MRWSRKMPCVS
B18: JM#14 (peptide)
peptide: IVRWSKKVPC[dV]S
B19: JM#41 (peptide)
peptide: IXRWSRKLPCVS
modifications: d-L at position 2
B20: JM#29 (peptide)
peptide: [dL]LRWSRKMPCVS
B21: JM#148 (peptide)
peptide: ILRWSRK([Glu-Palmitoyl])MPCLS
B22: JM#262 (peptide)
peptide: ILRWSRK(Myristoyl)-NH2
B23: JM#23 (peptide)
peptide: ILRWSRKVPSVS
B24: JM#27 (peptide)
peptide: MLRWSRKMPCVS
B25: JM#30 (peptide)
peptide: [dF]LRWSRKMPCVS
B26: JM#35 (peptide)
peptide: [dM]MRWSRKMPCVS
B27: JM#2 (peptide)
peptide: IFRWSKKVPCVS
B28: JM#28 (peptide)
peptide: XLRWSRKMPCVS
modifications: d-M at position 1
B29: JM#214 (peptide)
peptide: ILRWSRK(Lau)LPCVS
B30: JM#140 (peptide)
peptide: [dL]LRWSRKMPCVS
modifications: not fully specified (residue 7)
B31: JM#36 (peptide)
peptide: [dL]MRWSRKMPCVS
modifications: ends and bridges not checked
B32: JM#1 (peptide)
peptide: ILRWSKKVPCVS
B33: JM#25 (peptide)
peptide: Ac-SLRWSRKMPCVS
B34: JM#44 (peptide)
peptide: MXRWSRKMPCVS
modifications: d-L at position 2
B35: JM#10 (peptide)
peptide: IFRWSRKVPCVS
B36: JM#12 (peptide)
peptide: IVRWSKKMPCVS
B37: JM#31 (peptide)
peptide: GLRWSRKMPCVS
B38: JM#26 (peptide)
peptide: Ac-[dS]LRWSRKMPCVS
B39: JM#42 (peptide)
peptide: I[dL]RWSRKMPCVS
B40: JM#33 (peptide)
peptide: Ac-[dS]MRWSRKMPCVS
B41: JM#5 (peptide)
peptide: IVRWSKKLPCVS
B42: JM#110 (peptide)
peptide: IVRWSKK-NH2
B43: JM#149 (peptide)
peptide: ILRWSRK(Palmitoyl)MPCLS
B44: JM#11 (peptide)
peptide: IFRWSHKVPCVS
B45: JM#24 (peptide)
peptide: ILRWSRKMPSVS
B46: JM#106 (peptide)
peptide: IVRWSKKVP-NH2
B47: JM#9 (peptide)
peptide: ILRWSHKVPCVS

Molecular target: CXC chemokine receptor type 4 (CXCR4) (human, UniProt P61073 1-352)
Assay: cell-based or functional assay

Sequence of CXC chemokine receptor type 4 (CXCR4) (P61073 whole entry): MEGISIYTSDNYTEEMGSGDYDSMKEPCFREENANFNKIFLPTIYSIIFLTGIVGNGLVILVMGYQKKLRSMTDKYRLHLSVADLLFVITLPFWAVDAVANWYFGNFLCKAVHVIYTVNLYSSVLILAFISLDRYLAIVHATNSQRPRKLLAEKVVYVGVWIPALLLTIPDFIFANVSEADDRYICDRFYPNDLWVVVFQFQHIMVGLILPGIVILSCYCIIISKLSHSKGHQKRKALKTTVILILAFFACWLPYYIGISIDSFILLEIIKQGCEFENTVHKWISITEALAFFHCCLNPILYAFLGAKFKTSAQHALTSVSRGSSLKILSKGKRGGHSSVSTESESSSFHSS

Row | Binder | IC50, HIV inhibition assay | IC50, X4-HIV-1 inhibition assay | fold increase of anti-HIV-1 potency compared to WSC02 | IC50, HIV-1 inhibition assay
1 | B1 | > 150 nM | 5 nM | > 60 fold | 
2 | B2 | > 150 nM |  |  | 
3 | B3 | > 150 nM |  |  | 
4 | B4 | 50 to 150 nM |  |  | 
5 | B5 | > 150 nM |  |  | 
6 | B6 | > 150 nM |  |  | 
7 | B7 | > 150 nM |  |  | 
8 | B8 | > 150 nM |  |  | 
9 | B9 | 50 to 150 nM |  |  | 
10 | B10 | 50 to 150 nM |  |  | 
11 | B11 | 50 to 150 nM |  |  | 
12 | B12 | > 150 nM |  |  | 
13 | B13 | > 150 nM |  |  | 
14 | B14 | > 150 nM |  |  | 
15 | B15 | > 150 nM |  |  | 
16 | B16 | > 150 nM |  |  | 
17 | B17 | > 150 nM |  |  | 
18 | B18 | > 150 nM |  |  | 
19 | B19 | > 150 nM |  |  | 
20 | B20 | > 150 nM |  |  | 
21 | B21 | > 150 nM |  |  | 
22 | B22 | 50 to 150 nM |  |  | 
23 | B23 | > 150 nM |  |  | 
24 | B24 | 50 to 150 nM |  |  | 

Row | Binder | IC50, HIV inhibition assay | IC50, X4-HIV-1 inhibition assay | fold increase of anti-HIV-1 potency compared to WSC02 | IC50, HIV-1 inhibition assay
25 | B25 | > 150 nM |  |  | 
26 | B26 | > 150 nM |  |  | 
27 | B27 | > 150 nM |  |  | 
28 | B28 | > 150 nM |  |  | 246 nM
29 | B29 | 50 to 150 nM |  |  | 
30 | B30 | 50 to 150 nM |  |  | 
31 | B31 | > 150 nM |  |  | 206 nM
32 | B32 | > 150 nM |  |  | 
33 | B33 | > 150 nM |  |  | 
34 | B34 | > 150 nM |  |  | 
35 | B35 | 50 to 150 nM |  |  | 
36 | B36 | > 150 nM |  |  | 
37 | B37 | > 150 nM |  |  | 
38 | B38 | > 150 nM |  |  | 
39 | B39 | > 150 nM |  |  | 
40 | B40 | > 150 nM |  |  | 
41 | B41 | > 150 nM |  |  | 
42 | B42 | > 150 nM |  |  | 
43 | B43 | 50 to 150 nM |  |  | 
44 | B44 | > 150 nM |  |  | 
45 | B45 | > 150 nM |  |  | 
46 | B46 | > 150 nM |  |  | 
47 | B47 | > 150 nM |  |  | 
